Source: PMC11912937 (The Journal of Cell Biology, 2025)

Legend:
Details in all cases: both partners purified
[1] = molecular target: T1, FACT complex (SPT16/SSRP1), full length, untreated (human, UniProt Q9Y5B9 1-1047; Q08945 1-709, phosphorylated as purified from insect cells; residues not printed | phosphorylated as purified from insect cells; residues not given); experiment: pull-down; amylose resin, MBP-CENP-C fusion proteins (fragments or full-length ^MBPCENP-C^EGFP) as baits, FACT or FACT constructs as preys; 3 µM each; 20 mM Hepes pH 6.8, 300 mM NaCl, 2.5% glycerol, 1 mM TCEP, 0.01% Tween; 4°C
T1 construct: SPT16, FACT subunit; SSRP1, FACT subunit; His tags are followed by a TEV site; cleavage is not described; also called FAcilitates Chromatin Transcription complex; full-length FACT; source: Tnao38 insect cells (baculovirus), purified (HisTrap, HiTrap Q, SEC)

[2] = molecular target: T2, ^MBPCENP-C^EGFP (a full-length CENP-C construct) (human, UniProt Q03188 1-943); experiment: as above
T2 construct: CENP-C; also called ^His-MBPCENP-C^EGFP; source: Tnao38 insect cells (baculovirus), purified (TALON, heparin, SEC); not shown: MBP, N-terminal, kept; EGFP, C-terminal, kept

[3] = molecular target: T3, ^GSTCENP-OPQUR (CENP-OPQUR with CENP-U fused to an N-terminal GST) (human, UniProt Q9BU64 1-300; Q6IPU0 1-288; Q7L2Z9 1-268; Q71F23 1-418; Q13352 1-177); experiment: pull-down; glutathione-agarose, CENP-OPQUR with GST on CENP-U as bait, FACT constructs as preys; 3 µM each; 20 mM Hepes pH 6.8, 300 mM NaCl, 2.5% glycerol, 1 mM TCEP, 0.01% Tween; 4°C
T3 construct: CENP-O; CENP-P; CENP-Q; CENP-U; CENP-R; also called GST-tagged CENP-OPQUR; not shown: GST, N-terminal, kept; copies: + + + +

[4] = molecular target: T4, CCAN, 16-subunit constitutive centromere-associated network reconstituted with CENP-C^2–545 (human, UniProt Q03188 2-545; Q9H3R5 1-247; Q92674 1-756; Q9BS16 1-269; Q9NSP4 1-180; Q8N0S6 …); experiment: pull-down; amylose resin, MBP-tagged FACT (untreated, dephosphorylated, kinase-treated or truncated) as bait, CCAN or CCAN subcomplexes as preys; 3 µM each; 20 mM Hepes pH 6.8, 300 mM NaCl, 2.5% glycerol, 1 mM TCEP, 0.01% Tween; 4°C; SDS-PAGE, Coomassie
T4 construct: CENP-H; CENP-I; CENP-K; CENP-M; CENP-L; CENP-N; CENP-O; CENP-P; CENP-Q; CENP-U; CENP-R; CENP-T; CENP-W; CENP-S; CENP-X; source: recombinant subcomplexes expressed and purified as previously reported, mixed to reconstitute CCAN; copies: + + + + + + + + + + + + + + +

T1 sequence (Q9Y5B9 whole entry, the tested form may be a part, one chain of several): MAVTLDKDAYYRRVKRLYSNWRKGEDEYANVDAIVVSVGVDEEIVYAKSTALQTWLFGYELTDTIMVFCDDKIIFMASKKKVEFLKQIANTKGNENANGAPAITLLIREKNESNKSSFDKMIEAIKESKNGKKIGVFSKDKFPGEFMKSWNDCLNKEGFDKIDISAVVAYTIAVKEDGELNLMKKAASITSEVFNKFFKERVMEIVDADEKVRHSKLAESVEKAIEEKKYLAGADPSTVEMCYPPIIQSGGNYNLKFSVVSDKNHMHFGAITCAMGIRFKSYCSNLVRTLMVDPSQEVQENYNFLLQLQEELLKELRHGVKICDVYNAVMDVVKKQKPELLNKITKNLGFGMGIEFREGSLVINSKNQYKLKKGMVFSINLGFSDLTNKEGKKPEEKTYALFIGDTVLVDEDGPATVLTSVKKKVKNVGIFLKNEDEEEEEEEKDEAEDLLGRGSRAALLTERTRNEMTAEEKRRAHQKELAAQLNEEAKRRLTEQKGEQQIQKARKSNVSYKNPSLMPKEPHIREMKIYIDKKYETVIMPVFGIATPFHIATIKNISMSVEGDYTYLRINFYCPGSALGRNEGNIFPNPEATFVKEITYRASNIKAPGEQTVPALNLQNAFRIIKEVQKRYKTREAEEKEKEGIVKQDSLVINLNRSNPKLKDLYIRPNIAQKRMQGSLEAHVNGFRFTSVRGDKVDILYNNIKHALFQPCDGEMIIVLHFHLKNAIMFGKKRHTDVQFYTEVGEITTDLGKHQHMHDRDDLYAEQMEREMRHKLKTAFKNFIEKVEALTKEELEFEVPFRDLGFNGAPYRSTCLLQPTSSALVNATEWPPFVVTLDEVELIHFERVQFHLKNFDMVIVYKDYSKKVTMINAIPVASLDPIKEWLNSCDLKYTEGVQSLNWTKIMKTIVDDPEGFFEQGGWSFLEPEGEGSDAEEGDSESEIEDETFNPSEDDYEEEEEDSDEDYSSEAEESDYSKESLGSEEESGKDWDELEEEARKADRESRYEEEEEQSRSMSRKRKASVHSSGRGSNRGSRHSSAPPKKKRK
T2 sequence (Q03188 whole entry): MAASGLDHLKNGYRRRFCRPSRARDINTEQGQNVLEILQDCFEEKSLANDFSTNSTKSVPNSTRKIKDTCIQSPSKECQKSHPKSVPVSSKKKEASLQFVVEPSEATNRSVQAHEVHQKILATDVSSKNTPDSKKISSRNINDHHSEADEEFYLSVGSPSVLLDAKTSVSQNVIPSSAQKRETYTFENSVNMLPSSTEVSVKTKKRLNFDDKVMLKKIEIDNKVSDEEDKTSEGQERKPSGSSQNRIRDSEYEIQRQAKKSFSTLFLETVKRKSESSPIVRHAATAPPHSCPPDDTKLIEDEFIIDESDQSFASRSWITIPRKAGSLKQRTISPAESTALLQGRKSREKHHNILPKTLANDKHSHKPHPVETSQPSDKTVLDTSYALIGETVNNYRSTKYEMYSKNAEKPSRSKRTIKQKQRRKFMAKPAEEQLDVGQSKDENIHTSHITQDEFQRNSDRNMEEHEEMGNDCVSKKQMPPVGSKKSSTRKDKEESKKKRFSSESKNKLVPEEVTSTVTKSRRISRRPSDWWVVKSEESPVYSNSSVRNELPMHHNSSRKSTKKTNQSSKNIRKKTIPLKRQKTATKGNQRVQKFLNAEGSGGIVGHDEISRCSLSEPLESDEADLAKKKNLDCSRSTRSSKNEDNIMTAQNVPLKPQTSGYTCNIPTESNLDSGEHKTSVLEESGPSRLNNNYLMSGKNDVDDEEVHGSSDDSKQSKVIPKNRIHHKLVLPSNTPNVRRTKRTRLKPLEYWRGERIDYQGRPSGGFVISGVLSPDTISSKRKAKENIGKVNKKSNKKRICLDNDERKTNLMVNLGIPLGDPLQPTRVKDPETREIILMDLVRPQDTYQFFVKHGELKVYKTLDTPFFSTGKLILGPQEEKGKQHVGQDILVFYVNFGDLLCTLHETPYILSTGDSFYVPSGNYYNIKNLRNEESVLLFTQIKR

B1: ^MBPCENP-C^721–759-His (domain or fragment, human, UniProt Q03188 721-759, looked up)
chain: KNRIHHKLVLPSNTPNVRRTKRTRLKPLEYWRGERIDYQ
notes: CENP-C, residues 721-759; not shown: MBP, N-terminal, kept
binding result [1]: binds

B2: ^MBPCENP-C^546–600-His (domain or fragment, human, UniProt Q03188 546-600, looked up)
chain: VRNELPMHHNSSRKSTKKTNQSSKNIRKKTIPLKRQKTATKGNQRVQKFLNAEGS
notes: CENP-C, residues 546-600; not shown: MBP, N-terminal, kept
binding result [1]: binds

B3: SPT16^Mid-AID (SPT16^644–988) (domain or fragment, human, UniProt Q9Y5B9 644-988, looked up)
chain: GIVKQDSLVINLNRSNPKLKDLYIRPNIAQKRMQGSLEAHVNGFRFTSVRGDKVDILYNNIKHALFQPCDGEMIIVLHFHLKNAIMFGKKRHTDVQFYTEVGEITTDLGKHQHMHDRDDLYAEQMEREMRHKLKTAFKNFIEKVEALTKEELEFEVPFRDLGFNGAPYRSTCLLQPTSSALVNATEWPPFVVTLDEVELIHFERVQFHLKNFDMVIVYKDYSKKVTMINAIPVASLDPIKEWLNSCDLKYTEGVQSLNWTKIMKTIVDDPEGFFEQGGWSFLEPEGEGSDAEEGDSESEIEDETFNPSEDDYEEEEEDSDEDYSSEAEESDYSKESLGSEEESGK
notes: SPT16, Mid domain and AID segment, residues 644-988; also called construct 3; source: Tnao38 insect cells (baculovirus), purified (HisTrap, HiTrap Q, SEC)
binding result [2]: binds

B4: FACT^trunc (SPT16^508–988/SSRP1^1–514) (complex, human)
chain 1: SNVSYKNPSLMPKEPHIREMKIYIDKKYETVIMPVFGIATPFHIATIKNISMSVEGDYTYLRINFYCPGSALGRNEGNIFPNPEATFVKEITYRASNIKAPGEQTVPALNLQNAFRIIKEVQKRYKTREAEEKEKEGIVKQDSLVINLNRSNPKLKDLYIRPNIAQKRMQGSLEAHVNGFRFTSVRGDKVDILYNNIKHALFQPCDGEMIIVLHFHLKNAIMFGKKRHTDVQFYTEVGEITTDLGKHQHMHDRDDLYAEQMEREMRHKLKTAFKNFIEKVEALTKEELEFEVPFRDLGFNGAPYRSTCLLQPTSSALVNATEWPPFVVTLDEVELIHFERVQFHLKNFDMVIVYKDYSKKVTMINAIPVASLDPIKEWLNSCDLKYTEGVQSLNWTKIMKTIVDDPEGFFEQGGWSFLEPEGEGSDAEEGDSESEIEDETFNPSEDDYEEEEEDSDEDYSSEAEESDYSKESLGSEEESGK
chain 2: MAETLEFNDVYQEVKGSMNDGRLRLSRQGIIFKNSKTGKVDNIQAGELTEGIWRRVALGHGLKLLTKNGHVYKYDGFRESEFEKLSDFFKTHYRLELMEKDLCVKGWNWGTVKFGGQLLSFDIGDQPVFEIPLSNVSQCTTGKNEVTLEFHQNDDAEVSLMEVRFYVPPTQEDGVDPVEAFAQNVLSKADVIQATGDAICIFRELQCLTPRGRYDIRIYPTFLHLHGKTFDYKIPYTTVLRLFLLPHKDQRQMFFVISLDPPIKQGQTRYHFLILLFSKDEDISLTLNMNEEEVEKRFEGRLTKNMSGSLYEMVSRVMKALVNRKITVPGNFQGHSGAQCITCSYKASSGLLYPLERGFIYVHKPPVHIRFDEISFVNFARGTTTTRSFDFEIETKQGTQYTFSSIEREEYGKLFDFVNAKKLNIKNRGLKEGMNPSYDEYADSDEDQHDAYLERMKEEGKIREENANDSSDDSGEETDESFNPGEEEEDVAEEFDSNASASSSSNEGDSDRDE
notes: SPT16, residues 508-988; SSRP1, residues 1-514; also called construct 2; source: Tnao38 insect cells (baculovirus), purified (HisTrap, HiTrap Q, SEC)
binding result [3]: binds

B5: ^MBPFACT^trunc (MBP-TEV-SPT16^508–988 + His-TEV-SSRP1^1–514) (complex, human)
chain 1: B4 chain 1
chain 2: B4 chain 2
notes: SPT16, residues 508-988; SSRP1, residues 1-514; also called construct 2 with an N-terminal MBP fusion on SPT16; source: Tnao38 insect cells (baculovirus), purified (HisTrap, HiTrap Q, SEC); not shown: MBP, N-terminal, kept
binding result [4]: binds
